Laboratory results: patent US11739333B2, “Regulation of gene expression by aptamer-modulated RNase p cleavage” (MeiraGTx UK II Limited, priority 2017, dated 2023)

Experiments:
[1] = tested on: luciferase target gene expression in HEK 293 cells; experiment: Firefly luciferase assay of cultured cells, mascRNA inserted in 3' UTR; format: cell-based; conditions: no ligand
Protocol: Plasmid constructs: DNA fragments containing mouse mascRNA sequence and restriction sites at each end were synthesized (IDT), and digested and cloned into a plasmid backbone Con 8 that contains CMV enhancer/promoter and human beta-globin polyadenylation sequence. All constructs were verified by DNA sequencing (Genewiz).
Firefly luciferase assay of cultured cells: 3.5×10^4 HEK 293 cells were plated in 96-well flat bottom plate the day before transfection. Plasmid DNA (500 ng) was added to a tube or a 96-well U-bottom plate. Separately, TransIT-293 reagent (Minis; 1.4 μL) was added to 50 μL opti-mem I media (Life Technologies) and allowed to sit for 5 minutes at room temperature (“RT”). Then, 50 μL of this diluted transfection reagent was added to the DNA, mixed, and incubated at RT for 20 min. Finally, 7 μL of this solution was added to a well of cells in a 96-well plate. 4 hours after transfection, medium containing transfection solution was replaced with fresh medium. 24 hours after media change, plates were removed from the incubator, and equilibrated to RT for several minutes on a lab bench, then aspirated. […] Following a 5-min incubation at RT, luminescence was measured using a Tecan machine with 500 mSec read time. The luciferase activity was expressed as mean arbitrary light unit (ALU)±S.D.

[2] = tested on: luciferase target gene expression in HEK 293 cells (aptamer-modulated RNase P cleavage of mRNA); experiment: Firefly luciferase assay of transfected cells treated with or without aptamer ligand; format: cell-based
Protocol: Firefly luciferase assay of cultured cells: 3.5×10^4 HEK 293 cells were plated in 96-well flat bottom plate the day before transfection. Plasmid DNA (500 ng) was added to a tube or a 96-well U-bottom plate. Separately, TransIT-293 reagent (Minis; 1.4 μL) was added to 50 μL opti-mem I media (Life Technologies) and allowed to sit for 5 minutes at room temperature (“RT”). Then, 50 μL of this diluted transfection reagent was added to the DNA, mixed, and incubated at RT for 20 min. Finally, 7 μL of this solution was added to a well of cells in a 96-well plate. 4 hours after transfection, medium containing transfection solution was replaced with fresh medium. 24 hours after media change, plates were removed from the incubator, and equilibrated to RT for several minutes on a lab bench, then aspirated. Glo-lysis buffer (Promega, 100 μL, RT) was added, and the plates allowed to remain at RT for at least 5 minutes. Then, the well contents were mixed by 50 μL trituration, and 20 μL of each sample was mixed with 20 μL of bright-glo reagent (Promega) that had been diluted to 10% in glo-lysis buffer. 96 wells were spaced on an opaque white 384-well plate. Following a 5-min incubation at RT, luminescence was measured using a Tecan machine with 500 mSec read time. The luciferase activity was expressed as mean arbitrary light unit (ALU)±S.D.
Plasmid constructs: oligonucleotide fragments containing mascRNA and guanine aptamer sequences (Mandal, M, et al., Cell 113, 577-586 (2003), incorporated herein by reference) were synthesized (IDT) and cloned into a luciferase (Luci) expression construct (Con8) in the 3′ UTR region using compatible restriction sites BamHI and XhoI. All the constructs were verified by DNA sequencing (Genewiz).
Firefly luciferase assay of cultured cells: cells were transfected as described in Example 1. Four hours after transfection, medium containing transfection solution was replaced by medium with either 0.5% DMSO as solvent control or 500 μM guanosine (Sigma) as aptamer ligand. Twenty-two to twenty-four hours after treatment, a luciferase assay was performed as described in Example 1.
Plasmid construction: a DNA fragment containing sequences for the guanine aptamer xpt-G and human arginine pre-tRNA (Nashimoto M. N. et al. Long 5′ leaders inhibit removal of a 3′ trailer from a precursor tRNA by mammalian tRNA 3′ processing endoribonuclease. Nucleic Acids Research, 1999; 27(13): 2770-2776) were synthesized (IDT). The synthesized DNA fragments were digested with BamHI and XhoI restriction enzymes and cloned into the Con8 construct digested with the same restriction enzymes. Construct sequences were verified by DNA sequencing (Genewiz).
Plasmid construction: a DNA fragment containing sequences for the adenine aptamer ydhl-A (M. Mandal and R. R. Breaker, Adenine riboswitches and gene activation by disruption of a transcription terminator. Nature Structural & Molecular Biology. 2004; 11: 29-35, incorporated herein by reference) or theophylline aptamer (G. R. Zimmerman, et al. Interlocking structural motifs mediate molecular discrimination by a theophylline-binding RNA. Nature Structural Biology. 1997; 4: 644-649, incorporated herein by reference), and mascRNA sequence were synthesized (IDT). The synthesized DNA fragments were digested with BamHI and XhoI restriction enzymes and cloned into Con8 digested with the same restriction enzymes. Construct sequences were verified by DNA sequencing (Genewiz).
Four hours after transfection, the media was aspirated, and new media with NaOH (1 mM) as solvent or 1 mM adenine (Calbiochem), or 3 mM theophylline (Sigma) was added. The induction fold was expressed as the quotient of luciferase activity obtained in the presence of aptamer ligand divided by the value obtained in the absence of the aptamer ligand. […]

“Luci-mascRNA-mlp: luciferase construct with mascRNA mutated in the T-loop from UUC to AAG, negative control (GACGCUGGUGGCUGGCACUCCUGGUUUCCAGGACGGGGAAGAAGUCCCUGCGGUGUCU)” was tested, and the “decrease in luciferase expression compared to the luciferase construct that has no mascRNA (Luci)” value [1] was 20%.

B1: MG4: SEQ ID NO: 13; MG1 variant with 3 alternatively shared nucleotides (nucleic acid)
chain: CCTCATAAAGGCCAAGAAGGGCGGAAAGATCGCCGTGTAAGGATCCAAGACGAGCTGTACAAGTAAAGCGGCCAATTCGGACAAAAACGAGACGCTGGTGGCTGGCACTCCTGGTTTCCAGGACGGGGTTCAAGTCCCTGCGGTGTCTAGTATAATCGCGTGGATATGGCACGCAAGTTTCTACCGGGCACCGTAAATGTCCGACTACTAGACTTCTAGAGTCGACCTGCAGGCATGCAAGCTTCAGCTGCTCGAGGGCCCAGATCTAATTCACCCCACCAGTGCAGGCTGCCTATCAG
With B1 the “basal level luciferase activity” value ([2]; absence of guanine) was “modest decrease” and the “induction fold of luciferase, with guanine versus without guanine” value ([2]; guanine treatment) was “approximately 2 fold”.

B2: GArg: SEQ ID NO: 14; GM1 with mascRNA replaced by human arginine tRNA sequence (nucleic acid)
chain: CCTCATAAAGGCCAAGAAGGGCGGAAAGATCGCCGTGTAAGGATCCAAGACGAGCTGTACAAGTAAAGAAGACTGCGACGATAATCGCGTGGATATGGCACGCAAGTTTCTACCGGGCACCGTAAATGTCCGACTCGTCGCAGGGCCAGTGGCGCAATGGATAACGCGTCTGACTACGGATCAGAAGATTCCAGGTTCGACTCCTGGCTGGCTCGGTGTAGGCCGCGACTCTAGAGTCGACCTGCAGGCATGCAAGCTTCAGCTGCTCGAGGGCCCAGATCTAATTCACCCCACCAGTGCAGGCTGCCTATCAG
With B2 the “basal level luciferase expression as % of control construct Con8” value ([2]; absence of guanine) was “approximately 50%” and the “induction fold of luciferase, with guanine versus without guanine” value ([2]; guanine treatment) was 1.6 fold.

B3: TheoM: SEQ ID NO: 16; theophylline aptamer and mascRNA in luciferase 3' UTR (nucleic acid)
chain: CCTCATAAAGGCCAAGAAGGGCGGAAAGATCGCCGTGTAAGGATCCAAGACGAGCTGTACAAGTAAAGCGGCCTAATGTGATACCAGCCGAAAGGCCCTTGGCAGCACATTAGACGCTGGTGGCTGGCACTCCTGGTTTCCAGGACGGGGTTCAAGTCCCTGCGGTGTCTTTGCTTGGATCGGCCGCGACTCTAGAGTCGACCTGCAGGCATGCAAGCTTCAGCTGCTCGAGGGCCCAGATCTAATTCACCCCACCAGTGCAGGCTGCCTATCAG
For B3, the “fold increase in luciferase expression with theophylline” value ([2]; 3 mM theophylline vs solvent) was 4.1 fold and the “luciferase level as % of the control Con8 construct” value ([2]; absence of theophylline treatment) was “approximately 43.4%”.

B4: MG3: SEQ ID NO: 12; MG1 variant with 4 alternatively shared nucleotides (nucleic acid)
chain: CCTCATAAAGGCCAAGAAGGGCGGAAAGATCGCCGTGTAAGGATCCAAGACGAGCTGTACAAGTAAAGCGGCCAATTCGGACAAAAACGAGACGCTGGTGGCTGGCACTCCTGGTTTCCAGGACGGGGTTCAAGTCCCTGCGGTGTCTGTATAATCGCGTGGATATGGCACGCAAGTTTCTACCGGGCACCGTAAATGTCCGACTACAGACAATCTAGAGTCGACCTGCAGGCATGCAAGCTTCAGCTGCTCGAGGGCCCAGATCTAATTCACCCCACCAGTGCAGGCTGCCTATCAG
With B4 the “basal level luciferase activity” value ([2]; absence of guanine) was “modest decrease” and the “induction fold of luciferase, with guanine versus without guanine” value ([2]; guanine treatment) was “approximately 2 fold”.

B5: YM: SEQ ID NO: 15; ydhl-A adenine aptamer and mascRNA in luciferase 3' UTR (nucleic acid)
chain: CCTCATAAAGGCCAAGAAGGGCGGAAAGATCGCCGTGTAAGGATCCAAGACGAGCTGTACAAGTAAAGCGGCCGTAATGTTATAACCTCAATAATATGGTTTGAGGGTGTCTACCAGGAACCGTAAAATCCTGATTAACATTACGACGCTGGTGGCTGGCACTCCTGGTTTCCAGGACGGGGTTCAAGTCCCTGCGGTGTCTTTGCTTGGATCGGCCGCGACTCTAGAGTCGACCTGCAGGCATGCAAGCTTCAGCTGCTCGAGGGCCCAGATCTAATTCACCCCACCAGTGCAGGCTGCCTATCAG
In the case of B5, the “fold increase in luciferase expression with adenine” value ([2]; 1 mM adenine vs NaOH solvent) is reported as 3.3 fold.

B6: GM8: SEQ ID NO: 10; 3 nucleotides between effector region stem and mascRNA acceptor stem (nucleic acid)
chain: CCTCATAAAGGCCAAGAAGGGCGGAAAGATCGCCGTGTAAGGATCCAAGACGAGCTGTACAAGTAAAGAAGAGCTAATGTATAATCGCGTGGATATGGCACGCAAGTTTCTACCGGGCACCGTAAATGTCCGACTACATTAGCCGAGACGCTGGTGGCTGGCACTCCTGGTTTCCAGGACGGGGTTCAAGTCCCTGCGGTGTCTTTGCTTGGATCGGCCGCGACTCTAGAGTCGACCTGCAGGCATGCAAGCTTCAGCTGCTCGAGGGCCCAGATCTAATTCACCCCACCAGTGCAGGCTGCCTATCAG
For B6, the “luciferase expression in response to guanine treatment” value ([2]; guanine treatment) was “upregulate luciferase expression”.
